Measured values as given in the supplement of paper PMC9170038.

Tested on: K4 kissing-loop RNA reporter
Assay: apparent KD of K4 kissing-loop reporter; higher = weaker reporter binding
Conditions: Eterna round: R107
Experimental: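 RNA-MaP round R107: designed RNA switches with theophylline, tryptophan, arginine or FMN aptamers are transcribed on-chip within common flanks. They are titrated with a labelled K4 kissing-loop RNA reporter in RNA-MaP buffer (100 mM Tris pH 7.5, 80 mM KCl, 4 mM MgCl2), without ligand or with the indicated ligand. Median apparent KD per design.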

[1] = input ligand: theophylline 20 uM
[2] = input ligand: tryptophan 2.4 mM
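Also: bound reporter read as fluorescence of individual clusters on recovered sequencing chips by microscopy, with normalized cluster intensities fitted with a binding model.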

Row | Sequence | apparent KD of K4 kissing-loop reporter (input ligand: FMN 200 uM) [nM] | apparent KD of K4 kissing-loop reporter (input ligand: arginine 13.2 mM) [nM] | apparent KD of K4 kissing-loop reporter (input ligand: none) [nM] | apparent KD of K4 kissing-loop reporter [1] [nM] | apparent KD of K4 kissing-loop reporter [2] [nM]
1 | GGUGACAACCAGAGGUGAUGUAUAGUAUCGCGAGGACCGGUACGGCCGCCACUCGUGAAGAGAAAGGAGUGAUGUUCCGUAAUGG [Kazoo C7] | 287 | 276 | 272 | 390 | 138
2 | CACGGAGUGAUGUUCCGACCGAGGAACGAUACCAGACAAGUAUACGUCCCUUGGCAGCGUUUCUUAUAUAGUCAACGUUACCGUA [Theo A Ex t3] | 395 | 469 | 507 | 537 | 405
3 | GAGGUGGAGUGAUGUUCCACACUCGCUAGUAAGGAUAUGGCUGCUUCCAGAAGGUACCUAGAUUCAGUGUGCAUCAGUAACGUGC [theeternabot_exclusion_KL_FMN_A_4] | 95.2 | 96.3 | 106 | 105 | 96.3
4 | CGAGUGAUGUUCGUUUAUUACUCUGUUUGACAGGAUAUGCGGAAACGCAGAAGGGUCACCUUUGAGUUAGACGGAGUUAUUUUUU [Ex FMN A 22] | 539 | 359 | 407 | 355 | 323
5 | GAUAUAGUGAUGUUAUAUACUGAUAGACAACGAGGACCGGUACGGCCGCCACUCGAGAGGGUGAAAAUGAUGAUAAAAUAAUGAU [#02 K4 Tryptophan A Exclusion] | 329 | 318 | 333 | 306 | 278
6 | ACUGAAAGAUCUGAUACCAGACUUUUUGUAUUUAUUAAAACUAGUGAUGUUAGUUUAUCUGUCCCUUGGCAGCAGUUUCUACAGA [JR_Nu_ExcTheophyB_Sub023] | 128 | 132 | 144 | 134 | 117
7 | UUUUAAAUGUCUGAUACCAGAGAAAAUUUAUGUAGUGAUGUUAUAUACAAAAUAAAUAAGCUCCCUUGGCAGCAGUAUUAAUUUU [AstrosExc-TheB#7] | 465 | 449 | 465 | 357 | 442
8 | GAAAGGAGUGAUGUUCCUGAUAAUUUUAUGAAGGAUAUUCGAUGUGGAAGAAGGUCAUGCAGGCAGCAAGGUUGCGAUCAUAUCA [theeternabot_exclusion_KL_FMN_A_40] | 131 | 158 | 143 | 185 | 128
9 | ACCUACGAUCACAAUAGUGAUUGUAGGAACUAGGAUAUGCUGAAAAGCAGAAGGAGUGAUGUUCCAACUCAUGAAUAACAUGAGA [FmnAX 2 #OpenEnded #K4Late] | 536 | 252 | 249 | 274 | 198
10 | AACCCAUGACUGGAUACCAGACUAUACAUGCUGAGUGAUGUUUAGCGGAGUCAUCUCUCGGUCCCUUGGCAGCCAACGUCACGCG [theeternabot_sameState_KL_Theo_B_33] | 614 | 334 | 646 | 403 | 373
11 | GCCGUAGAUUGAAGGAGCGUUCUUACUGAGUACGGCAACCGGAAGUGAUGUUUCCAGGUGGAACAGGUAGGUCGCAAUCUACGGC | 102 | 87.4 | 105 | 88 | 93.9
12 | UGACUGGACUGAAGGAGCGCGAAACUCCUAGUGAUGUUAGGAUAACGAGACAAAGUCUCGACGCAGGUAGGUCGCAGUCUAGUCU | 130 | 92.6 | 116 | 119 | 120
13 | AAUGCGCAGGGAAGGAGCGCCGUCCAGUGAUGUUGGAGUUAAAUACCAGUGAUGUUGGUUAGGCAGGUAGGUCGCCCUAAAGCGC [Exclusion Arginine B GF 1] | 118 | 79.9 | 92.1 | 98 | 83.8
14 | UGGAGUUGACGAAAAGUCAACUCCUGAGAUACCAGUGACGAAAGUCACCCUUGGCAGCUCACUGGCAGUGAUGUUGCAAAAUAAA [KL-SSTheo-A4] | 135 | 52.2 | 60 | 84.7 | 123
15 | CCUUGAGAGUGAUGUUCUCGAGUGAAAGUCAAGGAUAUCCCGCGGUGGAGAAGGUGAUGGCGAACUUGACUGCUGUCAGUCCUAA [theeternabot_exclusion_KL_FMN_A_10] | 104 | 105 | 121 | 109 | 110
16 | GGAGUUACCUGGGAUACCAGUCGGAGGCCCAGAGCUCGGAGUGAUGUUCUGGGAUGUUUCGGCCCUUGGCAGCUCUGGGUCUCCG [#2 Exclusion - Theophylline B Attempt #4 (HarryS)] | 822 | 452 | 583 | 648 | 571
17 | GGAAGACACCUGAGUGAUGUUCGGGUGUGCCGAGGACCGGUACGGCCGCCACUCGGGUGGUACAGUUACUGAUUGGACCGCUAUC [Arbirace] | 127 | 203 | 275 | 603 | 204
18 | GCCGUACGCAUGGAUACCAGUCUAAGAGUGAUGUUCUUACCGAUUGCGCCUGGAUCAUUAGACCCUUGGCAGCCAUGCGUACGGC | 155 | 117 | 126 | 148 | 146
19 | AGCAGUGAUGUUGCAUUUAUAAUGACCGAUACCAGUAUCGAUAGAUACCCUUGGCAGCGGAUUUCCGCAACGACUAGGAAACUAG [Ex Theophylline A K4 14] | 305 | 359 | 355 | 508 | 283
20 | GGAUCCACCAGUGAUGUUGGAGAAAACUUCAAGGAUAUGACGAAAGUCAGAAGGUGGUAGACUGGACAAAGUCCGGUGGGAUCCA [FmnA10 U29+G78] | 622 | 214 | 264 | 566 | 198
21 | AUUGAACAAGUGAUGUUUGUAUUUUCCGAAGGAGCGUCUAAUAAGACAGGUAGGUCGCGGUUUCUCUUAAUAAUCAGGUCUUUAA [JR_Nu_ExcArginiA_Sub021] | 279 | 287 | 279 | 292 | 238
22 | CGAGUCAAUUCAGAUACCAGCCAAUUAAAGUCGAGUGAUGUUCGACAAUGAACAUCCAAAGGCCCUUGGCAGCUGAAUUGGGAAC [Same State Theophylline B GF 18] | 144 | 87.3 | 114 | 228 | 83.4
